B1: SOAT1 (parent)
chain: VYYIFERLCAPLFRNIKQEPFSAR
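Further: lentivirally expressed fusions sorted by FACS into six bins by GFP to DsRed ratio, PSI derived from sequencing read proportions per bin multiplied by bin number.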

Variants of B1 are the subject of this series. Nature of the series: protein stability index of a GFP-peptide fusion (GPS, HEK-293T) (PSI 1-6); higher = more stable. The conditions noted are these: c terminus: a fixed tail appended.
With VYYIFERLCAPYFRNIKQEPFSAR [L12Y], the protein stability index turned out to be 2.16. With VYYIFERLCAPTFRNIKQEPFSAR [L12T] the figure was 1.97.

Consider VYYIFERLCAPPFRNIKQEPFSAR [L12P], for which the protein stability index was found to be 5.2. With VYYIFERLCAPKFRNIKQEPFSAR [L12K] the figure was 2.57; with VYYIFERLCAPEFRNIKQEPFSAR [L12E], 2.07; with VYYIFERLCAPNFRNIKQEPFSAR [L12N], 1.98. The result for VYYIFERLCAPIFRNIKQEPFSAR [L12I] reads 3.19. The result for VYYIFERLCAPGFRNIKQEPFSAR [L12G] reads 2.59; that for VYYIFERLCAPMFRNIKQEPFSAR [L12M], 2.71; that for VYYIFERLCAPLFRNIKQEPHSAR [F21H], 1.59. On to VYYIFERLCAPLFRNIKQEPTSAR [F21T], for which the protein stability index was 2.7. With VYYIFERLCAPLFRNIKQEPDSAR [F21D] the figure was 2.17; with VYYIFERLCAPLFRNIKQEPWSAR [F21W], 3.02; with VYYIFERLCAPLFRNIKQEPSSAR [F21S], 2.13. With VYYIFERLCAPLFRNIKQEPPSAR [F21P] the figure was 2.26. Turning to VYYIFERLCAPLFRNIKQEPESAR [F21E], the protein stability index came to 2.39.

Regarding VYYIFERLCAPLFRNIKQEPRSAR [F21R], the protein stability index is 2.74.

For VYYIFERLCAPLFRNIKQEPISAR [F21I], the protein stability index amounted to 2.94. With VYYIFERLCAPLFRNIKQEPNSAR [F21N] the figure was 1.36; with VYYIFERLCAPLFRNIKQEPQSAR [F21Q], 1.77. With VYYIFERLCAPLFRNIKQEPMSAR [F21M] the figure was 2.64; with VYYIFERLCAPLFRNIKQEPCSAR [F21C], 1.99. With VYYIFERLCAPLFRNIKQEPYSAR [F21Y] the figure was 2.9. As for VYYIFERLCAPLFRNIKQEPVSAR [F21V], the protein stability index is 2.97. In the case of VYYIFERLCAPLFRNIKQEPASAR [F21A], the protein stability index stood at 2.07.

In the case of VYYIFERLCAPLFRNIKQEPLSAR [F21L], the protein stability index was 1.7. The result for VYYIFERLCVPLFRNIKQEPFSAR [A10V] reads 3.16.

For VYYIFERLCTPLFRNIKQEPFSAR [A10T], the protein stability index stood at 2.74. With VYYIFERLCSPLFRNIKQEPFSAR [A10S] the figure was 2.39; with VYYIFERLCRPLFRNIKQEPFSAR [A10R], 1.53. With VYYIFERLCWPLFRNIKQEPFSAR [A10W] the figure was 2.4. As for VYYIFERLCNPLFRNIKQEPFSAR [A10N], the protein stability index came to 3.54. Regarding VYYIFERLCMPLFRNIKQEPFSAR [A10M], the protein stability index was found to be 1.39. With VYYIFERLCHPLFRNIKQEPFSAR [A10H] the figure was 3.56. With VYYIFERLCLPLFRNIKQEPFSAR [A10L] the figure was 3.17; with VYYIFERLCAGLFRNIKQEPFSAR [P11G], 2.08. With VYYIFERLCARLFRNIKQEPFSAR [P11R] the figure was 2.24; with VYYIFERLCACLFRNIKQEPFSAR [P11C], 1.09.

As for VYYIFERLCAFLFRNIKQEPFSAR [P11F], the protein stability index worked out at 1.83. VYYIFERLCAYLFRNIKQEPFSAR [P11Y]: the protein stability index stood at 1.83. Take VYYIFERLCAILFRNIKQEPFSAR [P11I]: the protein stability index amounted to 2.89. With VYYIFERLCAELFRNIKQEPFSAR [P11E] the figure was 1.76.

Consider VYYIFERLCAHLFRNIKQEPFSAR [P11H], for which the protein stability index was 3.92.

On to VYYIFERLCAVLFRNIKQEPFSAR [P11V], for which the protein stability index was 2.39. With VYYIFERLCASLFRNIKQEPFSAR [P11S] the figure was 1.57; with VYYIFERLCALLFRNIKQEPFSAR [P11L], 1.89. The result for VYYIFERLCADLFRNIKQEPFSAR [P11D] reads 1.87.

For VYYIFERLCAQLFRNIKQEPFSAR [P11Q], the protein stability index was 1.25.

VYYIFERLCAWLFRNIKQEPFSAR [P11W]: the protein stability index was found to be 2.77. The result for VYYIFERLCAALFRNIKQEPFSAR [P11A] reads 1.17. The result for VYYIFERLCANLFRNIKQEPFSAR [P11N] reads 1.86; that for VYYIFERLCAKLFRNIKQEPFSAR [P11K], 3.65; that for VYYIFERLCAPLRRNIKQEPFSAR [F13R], 4.31. With VYYIFERLCAPLIRNIKQEPFSAR [F13I], the protein stability index was 2.64. The result for VYYIFERLCAPLTRNIKQEPFSAR [F13T] reads 4.31; that for VYYIFERLCAPLHRNIKQEPFSAR [F13H], 2. The result for VYYIFERLCAPLNRNIKQEPFSAR [F13N] reads 3.57; that for VYYIFERLCAPLARNIKQEPFSAR [F13A], 1.96. Consider VYYIFERLCAPLPRNIKQEPFSAR [F13P], for which the protein stability index amounted to 3.2. The result for VYYIFERLCAPLSRNIKQEPFSAR [F13S] reads 2.09; that for VYYIFERLCAPLFRNIKQEYFSAR [P20Y], 4.1; that for VYYIFERLCAPLFRNIKQEGFSAR [P20G], 2.71. The result for VYYIFERLCAPLFRNIKQEAFSAR [P20A] reads 2.34. The result for VYYIFERLCAPLFRNIKQEQFSAR [P20Q] reads 2.44. In the case of VYYIFERLCAPLFRNIKQELFSAR [P20L], the protein stability index amounted to 2.48. The result for VYYIFERLCAPLFRNIKQEWFSAR [P20W] reads 2.79; that for VYYIFERLCAPLFRNIKQEIFSAR [P20I], 2.71; that for VYYIFERLCAPLFRNIKQESFSAR [P20S], 1.36. With VYYIFERLCAPLFRNIKQETFSAR [P20T] the figure was 3.49; with VYYIFERLCAPLFRNIKQENFSAR [P20N], 2.53. With VYYIFERLCAPLFRNIKQEKFSAR [P20K] the figure was 1.88; with VYYIFERLCAPLFRNIKQEMFSAR [P20M], 2.49. Take VYYIFERLCAPLFRNIKQEVFSAR [P20V]: the protein stability index was 2.6. On to VYYIFERLCAPLFRNIEQEPFSAR [K17E], for which the protein stability index was determined as 3.03. With VYYIFERLCAPLFRNIFQEPFSAR [K17F] the figure was 1.74.

In the case of VYYIFERLCAPLFRNIMQEPFSAR [K17M], the protein stability index turned out to be 2.78.

Turning to VYYIFERLCAPLFRNIDQEPFSAR [K17D], the protein stability index worked out at 1.76. The result for VYYIFERLCAPLFRNIVQEPFSAR [K17V] reads 3.1; that for VYYIFERLCAPLFRNIQQEPFSAR [K17Q], 2.52.

On to VYYIFERLCAPLFRNICQEPFSAR [K17C], for which the protein stability index came to 4.42. The result for VYYIFERLCAPLFRNIYQEPFSAR [K17Y] reads 2.06; that for VYYIFERLCAPLFRNINQEPFSAR [K17N], 2.87; that for VYYIFERLCAPLFRNIIQEPFSAR [K17I], 1.47.

On to VYYIFERLCAPLFRNIRQEPFSAR [K17R], for which the protein stability index was determined as 2.04.

Take VYYIFERLCAPLFRNIKQEPFDAR [S22D]: the protein stability index came to 2.88. With VYYIFERLCAPLFRNIKQEPFNAR [S22N] the figure was 2.3; with VYYIFERLCAPLFRNIKQEPFMAR [S22M], 3.1. With VYYIFERLCAPLFRNIKQEPFAAR [S22A] the figure was 2.65; with VYYIFERLCAPLFRNIKQEPFFAR [S22F], 2.66; with VYYIFERLCAPLFRNIKQEPFEAR [S22E], 2.61. With VYYIFERLCAPLFRNIKQEPFIAR [S22I] the figure was 3.73; with VYYIFERLCAPLFRNIKQEPFGAR [S22G], 2.8. In the case of VYYIFERLCAPLFRNIKQEPFHAR [S22H], the protein stability index is 1.92.

In the case of VYYIFERLCAPLFRNIKQEPFKAR [S22K], the protein stability index amounted to 1.96.

The values are drawn from the supplement of paper PMC10567573.
